Tests used:
[1] = molecular target: Keratin 17 recombinant protein (human) (UniProt Q04695); assay: sandwich ELISA: E3 coated 2 ug/mL, recombinant K17 calibrator 12.3 ng/mL, detection 2D10-HRP 1 ug/mL
[2] = molecular target: Keratin 17 recombinant protein (human) (UniProt Q04695); assay: sandwich ELISA: E3 coated 2 ug/mL, recombinant K17 calibrator 4.1 ng/mL, detection 2D10-HRP 1 ug/mL
[3] = molecular target: Keratin 17 recombinant protein (human) (UniProt Q04695); assay: sandwich ELISA: E3 coated 2 ug/mL, recombinant K17 calibrator 1000 ng/mL, detection 2D10-HRP 1 ug/mL
[4] = molecular target: Keratin 17 recombinant protein (human) (UniProt Q04695); assay: sandwich ELISA: E3 coated 2 ug/mL, recombinant K17 calibrator 1.4 ng/mL, detection 2D10-HRP 1 ug/mL
[5] = molecular target: Keratin 17 in HeLa cells (human) (UniProt Q04695); assay: microfluidic cytometry (Moxi Go), methanol-fixed HeLa cells, E3 primary antibody, PE anti-mouse secondary
[6] = molecular target: Keratin 17 recombinant protein (human) (UniProt Q04695); assay: sandwich ELISA: E3 coated 2 ug/mL, recombinant K17 calibrator 333.3 ng/mL, detection 2D10-HRP 1 ug/mL
[7] = molecular target: Keratin 17 recombinant protein (human) (UniProt Q04695); assay: sandwich ELISA: E3 coated 2 ug/mL, recombinant K17 calibrator 111.1 ng/mL, detection 2D10-HRP 1 ug/mL
[8] = molecular target: Keratin 17 recombinant protein (human) (UniProt Q04695); assay: sandwich ELISA: E3 coated 2 ug/mL, recombinant K17 calibrator 37.0 ng/mL, detection 2D10-HRP 1 ug/mL
[9] = molecular target: Keratin 17 recombinant protein (human) (UniProt Q04695); assay: sandwich ELISA: E3 capture, 2D10-HRP detection, recombinant K17 calibrators

“mouse monoclonal-[E3] anti-human K17 antibody” was tested, and the OD Avg. (450 nm) [1] was 0.321 OD, the OD-1 (450 nm) [1] was 0.323 OD and the OD-2 (450 nm) [1] was 0.318 OD. The OD Avg. (450 nm) [2] was 0.141 OD, the OD-1 (450 nm) [2] was 0.142 OD and the OD-2 (450 nm) [2] was 0.14 OD. It also gave an OD Avg. (450 nm) [3] of 3.59 OD, an OD-1 (450 nm) [3] of 3.56 OD and an OD-2 (450 nm) [3] of 3.62 OD. For the same substance, the OD Avg. (450 nm) [4] was 0.084 OD, the OD-1 (450 nm) [4] was 0.087 OD and the OD-2 (450 nm) [4] was 0.081 OD. For the same substance, the % K17-positive cells [5] was 90.4%, the OD Avg. (450 nm) [6] was 3.59 OD and the OD-1 (450 nm) [6] was 3.58 OD. It also gave an OD-2 (450 nm) [6] of 3.6 OD, an OD Avg. (450 nm) [7] of 2.38 OD and an OD-1 (450 nm) [7] of 2.47 OD. It also gave an OD-2 (450 nm) [7] of 2.29 OD, an OD Avg. (450 nm) [8] of 0.838 OD and an OD-1 (450 nm) [8] of 0.844 OD. The OD-2 (450 nm) [8] was 0.832 OD and the limit of sensitivity [9] was 1 ng/mL.
